Experiments:
[1] = molecular target: T1, Recombinant cynomolgus monkey IL-1RAP-ECD(S21-E359)-avi-his protein (cynomolgus monkey, UniProt P59822 21-359 (rhesus entry)); assay: SPR
T1 construct: also called cyno IL-1RAP-ECD-Avi-His; recombinant cynomolgus monkey IL-1RAP-avi-his protein
T1 sequence: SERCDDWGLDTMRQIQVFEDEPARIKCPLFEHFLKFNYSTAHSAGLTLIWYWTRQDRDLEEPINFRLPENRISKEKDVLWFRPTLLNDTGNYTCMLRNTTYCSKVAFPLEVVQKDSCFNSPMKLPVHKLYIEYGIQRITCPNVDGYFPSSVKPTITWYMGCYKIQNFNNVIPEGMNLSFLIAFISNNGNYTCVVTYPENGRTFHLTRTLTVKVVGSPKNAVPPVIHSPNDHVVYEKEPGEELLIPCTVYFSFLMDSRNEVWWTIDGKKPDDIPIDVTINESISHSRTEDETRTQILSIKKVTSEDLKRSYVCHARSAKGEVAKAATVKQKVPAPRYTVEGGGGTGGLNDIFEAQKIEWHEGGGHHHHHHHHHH

[2] = molecular target: T2, Recombinant mouse IL-1RAP-his (Sino Biologicals, catalog no. 52657-M08H) (mouse, UniProt Q61730 21-350); assay: SPR, mouse IgG2a LALA captured by anti-mouse Fc, mouse IL-1RAP-his as analyte, 1:1 fit
T2 construct: Bought; not shown: His tag of the bought protein
T2 sequence: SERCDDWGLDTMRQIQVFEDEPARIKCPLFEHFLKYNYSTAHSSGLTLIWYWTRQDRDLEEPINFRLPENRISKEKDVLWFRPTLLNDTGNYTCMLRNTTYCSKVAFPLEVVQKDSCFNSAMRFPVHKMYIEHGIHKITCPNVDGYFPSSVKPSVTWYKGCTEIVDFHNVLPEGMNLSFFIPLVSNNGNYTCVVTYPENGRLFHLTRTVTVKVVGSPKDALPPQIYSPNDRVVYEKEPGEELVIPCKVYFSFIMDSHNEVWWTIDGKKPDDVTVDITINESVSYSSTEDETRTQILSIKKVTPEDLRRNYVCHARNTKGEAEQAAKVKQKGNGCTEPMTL
Method: (§1) Surface plasmon resonance (SPR) was used to measure the binding affinities of mouse IgG2a LALA molecules for mouse IL-1RAP. Affinity was measured on a BIACORE™ T200 instrument (BIACORE™ GE […]®) at 25° C. and analyzed with the BIACORE™ T200 Evaluation Software (v3.1). Measurements were performed on Series S CM5 sensor chips (BIACORE™ T200, BIACORE™, GE […]®, catalog no. BR100530) coupled with anti-mouse IgG Fc (BIACORE™, GE […]®, catalog no. BR100838) using a commercial amine coupling kit (BIACORE™, GE […]®, catalog no. BR100050). SPR measurements were performed with commercially available recombinant mouse IL-1RAP-his (Sino Biologicals, catalog no. 52657-M08H). The affinity to mouse IL-1RAP was assessed by immobilizing anti-mouse IL-1RAP mouse IgG2a LALA molecule and using mouse IL-1RAP protein as analyte. Around 150 RU of mouse IgG2a LALA was captured on fc2 of a Series S CM5 sensor chip coupled with anti-mouse IgG Fc. Mouse IL-1RAP-his was injected in multi cycle kinetic at different concentrations ranging from 0.14 to 100 nM, in HBS-EP+ buffer (BIACORE™, GE […]®, catalog no. BR100669) at a flow rate of 30 μl/min for 3 min on fc1 and fc2 (fc1 being used as reference). Dissociation was monitored for 15 min. After each cycle, the surface was regenerated with 60 μl of regeneration solution provided with anti-mouse IgG Fc capture kit (BIACORE™ GE […]®, catalog no. BR100838). Experimental data were processed using the 1:1 Langmuir kinetic fitting model. Measurements included zero-concentration samples for referencing. Chi², U- and residual values were used to evaluate the quality of a fit between the experimental data and individual binding models.

[3] = molecular target: T2, Recombinant mouse IL-1RAP-his (Sino …); assay: SPR, mouse IgG2a LALA captured on anti-mouse IgG Fc CM5 chip, mouse IL-1RAP-his as analyte in a concentration series, 1:1 fit, one representative replicate
Method: Anti-IL-1RAP-C3-A3 mouse IgG2a LALA was immobilized on a Series S CM5 sensor CHIP coupled with anti-mouse IgG Fc. Mouse IL-1RAP-his was injected over immobilized IgG2a LALA in concentration series in HBS-EP+ buffer. One representative replicate is presented. Plots are showing data expressed as number of resonance units (abbreviated RU; Y axis) vs. time (s, X axis). Dotted lines represent the measured data while solid lines represent simulated fits. KD: equilibrium dissociation constant; Ka: association constant; Kd: dissociation constant.
as §1, with “Chi², U- and residual values were used to evaluate the quality of a fit between the experimental data and individual binding models.” left out

binding result [1]: no binding
Kd [2]: 0.545 nM
koff [2]: 7.46e-05 s⁻¹
kon [2]: 138000 M⁻¹ s⁻¹
Kd [3]: 0.557 nM
koff [3]: 7.6e-05 s⁻¹
kon [3]: 137000 M⁻¹ s⁻¹
B1: Anti-IL-1RAP-C3-A3 mmIgG2a LALA (antibody, V domains shown)
VH: EVQLLESGGGLVQPGGSLRLSCAASGFIFSHYGMSWVRQAPGKGLEWVSAISYDGEGTLYADSVKGRFTISRDNSKNTLYLQMNSLRAEDTAVYYCARFRYYTAFDYWGQGTLVTVSS
VL: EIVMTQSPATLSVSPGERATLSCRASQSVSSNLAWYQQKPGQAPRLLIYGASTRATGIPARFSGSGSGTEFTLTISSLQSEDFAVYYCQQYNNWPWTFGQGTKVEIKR
notes: also called anti-IL-1RAP-C3-A3 mouse IgG2a LALA
